The target in test [1] is T1, CCR7 expressed on CHO-K1 cells (UniProt P32248 25-378).
T1 construct: chemokine receptor CCR7, recombinant, on CHO-K1 cells; source: CHO-K1 cells expressing CCR7 only or co-expressing CXCR4 and CCR7
T1 sequence (looked up): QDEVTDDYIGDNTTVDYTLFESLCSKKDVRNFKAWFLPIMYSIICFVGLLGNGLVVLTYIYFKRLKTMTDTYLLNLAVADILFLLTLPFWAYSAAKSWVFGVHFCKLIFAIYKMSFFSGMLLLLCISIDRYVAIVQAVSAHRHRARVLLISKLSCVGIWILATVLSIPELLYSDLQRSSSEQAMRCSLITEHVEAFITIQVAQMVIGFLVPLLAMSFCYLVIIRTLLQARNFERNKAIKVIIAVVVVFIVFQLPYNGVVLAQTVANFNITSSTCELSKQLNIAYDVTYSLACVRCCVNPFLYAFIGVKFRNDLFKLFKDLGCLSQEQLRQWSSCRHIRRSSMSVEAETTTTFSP
Put plainly: radioligand binding; competition on CHO-K1 cells co-expressing CXCR4 and CCR7; tracer 0.1 nM 125I-CCL19, increasing concentrations of unlabelled competitor; non-specific binding defined with 300 nM competitor. As to conditions: one partner purified.

Test [2] addresses T1, CCR7 expressed on CHO-K1 cells. In words: radioligand binding; competition on CHO-K1 cells expressing CCR7 only; tracer 0.1 nM 125I-CCL19, increasing concentrations of unlabelled competitor; non-specific binding defined with 300 nM competitor. As to conditions: one partner purified.

For orientation: IC50 means the concentration that gives 50% inhibition. High values mean weaker potency, low ones greater potency.

B1: CCL21 (ligand, UniProt O00585 24-134, looked up)
chain: SDGGAQDCCLKYSQRKIPAKVVRSYRKQEPSLGCSIPAILFLPRKRSQAELCADPKELWVQQLMQHLDKTPSPQKPAQGCRKDRGASKTGKKGKGSKGCKRTERSQTPKGP
For the molecule B1, the IC50 was 4.2 nM in test [1] and 4.06 nM in test [2].

B2: CCL19 (ligand, UniProt Q99731 22-98, looked up)
chain: GTNDAEDCCLSVTQKPIPGYIVRNFHYLLIKDGCRVPAVVFTTLRGRQLCAPPDQPWVERIIQRLQRTSAKMKRRSS
notes: also called unlabeled CCL19
Take B2: the IC50 in test [1] is 1.7 nM; in test [2], 1.84 nM.
